Assay results published in patent publication US20250270304A1 (PHENOMIC AI, published 2025).
Changes are numbered by the printed parent chain.

T1: Inhibin A (Homo sapiens (Human), UniProt P05111 233-366; P08476 311-426)
T1 sequence 1: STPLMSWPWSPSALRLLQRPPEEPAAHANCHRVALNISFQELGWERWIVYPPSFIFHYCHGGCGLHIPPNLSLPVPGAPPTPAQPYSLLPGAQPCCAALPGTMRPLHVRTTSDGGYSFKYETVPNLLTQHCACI
T1 sequence 2: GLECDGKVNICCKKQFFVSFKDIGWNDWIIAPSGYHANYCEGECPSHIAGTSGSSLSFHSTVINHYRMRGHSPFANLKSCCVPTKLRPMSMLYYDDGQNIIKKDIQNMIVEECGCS

T2: Activin B (Homo sapiens (Human), UniProt P09529 293-407)
T2 construct: also called Mature Activin B; mature Activin B
T2 sequence: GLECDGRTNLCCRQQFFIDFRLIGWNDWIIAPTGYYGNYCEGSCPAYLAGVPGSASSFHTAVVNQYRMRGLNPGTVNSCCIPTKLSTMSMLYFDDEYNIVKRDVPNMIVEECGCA

T3: Mature Activin A (human, UniProt P08476 311-426)
T3 construct: also called active Activin A; INHBA mature
T3 sequence: T1 sequence 2

T4: Latent Activin A (human, UniProt P08476 21-426, limits assumed)
T4 construct: also called INHBA latent
T4 sequence: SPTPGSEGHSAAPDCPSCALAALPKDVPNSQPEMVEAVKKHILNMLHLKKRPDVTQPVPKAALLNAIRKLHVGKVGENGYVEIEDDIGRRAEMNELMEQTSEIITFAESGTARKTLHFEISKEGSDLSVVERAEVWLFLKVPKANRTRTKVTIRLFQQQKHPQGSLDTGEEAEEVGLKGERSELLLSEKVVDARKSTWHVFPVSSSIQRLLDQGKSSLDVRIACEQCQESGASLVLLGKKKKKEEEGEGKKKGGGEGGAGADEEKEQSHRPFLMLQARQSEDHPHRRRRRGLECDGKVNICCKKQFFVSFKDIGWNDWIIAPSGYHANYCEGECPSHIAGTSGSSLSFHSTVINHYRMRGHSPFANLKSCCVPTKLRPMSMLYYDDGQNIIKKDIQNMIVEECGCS

T5: Inhibin B (Homo sapiens (Human), UniProt P05111 233-366; P09529 293-407)
T5 sequence 1: T1 sequence 1
T5 sequence 2: T2 sequence

B1: AB340 (antibody, IgG1, V domains shown)
VH: EVQLVESGGGLVQPGGSLRLSCAASGFTASRNYMSWVRQAPGKGLELVASISGSGDYTYYPDSVKGRFTISRDNAKNSLYLQMNSLRAEDTAVYYCARSPRGPRLLGYYYGMDVWGQGTTVTVSS
VL: DIVMTQSPLSLPVTPGEPASISCRSSRSLVHGSGHNYLHWYLQKPGQSPQLLIYGASTRVAGVPDRFSGSGSGTDFTLKISRVEAEDVGVYYCMQGTQAPRTFGGGTKVEIK
B2: Control 1 (antibody, V domains shown)
VH: QVQLVQSGAEVKKPGASVKVSCKASGYTFTSYGLSWVRQAPGQGLEWMGWIIPYNGNTNSAQKLQGRVTMTTDTSTSTAYMELRSLRSDDTAVYFCARDRDYGVNYDAFDIWGQGTMVTVSS
VL: not shown
notes: also called AMGA1; Amga1
B3: AB347 (antibody, IgG1, V domains shown)
VH: QVQLQESGPGLVKPSQTLSLTCTVSGFPLSTSRMGVNWIRQPPGKGLEWIGYINPSGATDYNPSLKSRVTMSVDTSKNQFSLKVNSVTAADTAVYYCARAGYPDVWGKGTTVTVSS
VL: EIVMTQSPATLSLSPGERATLSCRASQNIGHSLAWYQQKPGQAPRLLIYGASIRAPGIPARFSGSGSGTDFTLTISSLEPEDFAVYYCQQYITWPSTFGGGTKVEIK
B4: AB350 (antibody, IgG1, V domains shown)
VH: B3 VH with F27V, P28S, T31D, S32A, I53V, N54S, P55T, S56T, A58T, T111L
VL: EIVMTQSPATLSLSPGERATLSCRASESVRSNLAWYQQKPGQAPRLLIYGASNRASGIPARFSGSGSGTDFTLTISSLEPEDFAVYYCQQYHTWPPWAFGGGTKVEIK
B5: AB353 (antibody, IgG1, V domains shown)
VH: B3 VH with F27L, P28S, T31N, S32A, R33K, I53V, N54S, P55T, S56T, A58T
VL: EIVMTQSPATLSLSPGERATLSCRASQNVYTNLAWYQQKPGQAPRLLIYGASARASGIPARFSGSGSGTDFTLTISSLEPEDFAVYYCLQYGSSPPLFGGGTKVEIK
B6: AB326 (antibody, IgG1, V domains shown)
VH: QVQLVQSGAEVKKPGASVKVSCKVSGYTFTSSAISWVRQAPGKGLEWMGGIYPGSGHTIYAQKFQGRVTMTEDTSTDTAYMELSSLKSEDTAVYYCAREGDIFVMDVWGLGTAVTVSS
VL: DIQMTQSPSSVSASVGDRVTITCRASMDIRNDLAWYQQKPGKAPKLLIYDASKLETGVPSRFSGSGSGTDFTLTISSLQPEDFANYYCQQAKSFPPTFGGGTKVEIK
B7: AB852 (antibody, IgG1, V domains shown)
VH: QVTLRESGPALVKPTQTLTLTCTVSGFSLSDTRWGVNWIRQPPGKALEWIGYINDRGTTDYNSALKSRLTISKDTSKNQVVLTMTNMDPVDTATYYCAHTLHTREFVGMDVWGQGTTVTVSS
VL: DIVMTQSPDSLAVSLGERATINCKSSQSVLDTSTNRNYLAWYQQKPGQPPKLLIYGASIRAGGVPDRFSGSGSGTDFTLTISSLQAEDVAVYYCQQYETWPWTFGGGTKVEIK
B8: AB843 (antibody, IgG1, V domains shown)
VH: EVQLVQSGAEVKKPGASVKVSCKASGDTSSHSHIHWVRQAPGQGLEWMGWINPRSGATNYAQKLQGRGTMTTDPSTSTAYMELRSLRSDDTAVYYCARDRGGRTNGVGAFDIWGQGTMVTVSS
VL: ESALTQPASVSGSPGQSITISCTGTSGDIGRYNYVSWYQQHPGKAPKLMIYEDIERPSGVSNRFSGSKSGNTASLTISGLQAEDEADYYCQVWDATLDLVFGGGTKLTVL
B9: AB342 (antibody, IgG1, V domains shown)
VH: EVQLVESGGGLVQPGGSLRLSCAASGFDFGEHWMSWVRQAPGKGLELVASIKGDASDTYYPDSVKGRFTISRDNAKNSLYLQMNSLRAEDTAVYYCVKDLSKQWLGIDYWGQGTLVTVSS
VL: DIVMTQSPLSLPVTPGEPASISCRSSQSLLHSNEKNYLHWYLQKPGQSPQLLIYDASKRASGVPDRFSGSGSGTDFTLKISRVEAEDVGVYYCVQDLHTPFTFGGGTKVEIK
B10: Control 2 (antibody, human IgG4 S228P, kappa, V domains shown)
VH: QVQLQESGPGLVKPSETLSLTCTVSGGSFSSHFWSWIRQPPGKGLEWIGYILYTGGTSFNPSLKSRVSMSVGTSKNQFSLKLSSVTAADTAVYYCARARSGITFTGIIVPGSFDIWGQGTMVTVSS
VL: not shown
notes: also called garetosmab; Garetosmab

Legend:
Inhibin A [1] = target: T1, Inhibin A; assay: ELISA, coated antigen, OD450
Activin B [2] = target: T2, Activin B; assay: ELISA, coated antigen, OD450
Mature Activin A [3] = target: T3, Mature Activin A; assay: ELISA, coated antigen, OD450
Protocol: (§1) Antibodies were re-expressed in 40 mL cultures of Expi293 cells and purified using protein G magnetic sepharose beads (Cytiva, Marlborough, MA) to provide larger quantities for secondary screening. Secondary screening included dose responses in both functional assays described above (SMAD nuclear localization and fibroblast activations assays) as well as in binding assays to the same antigens listed in Table 3. Plates were coated with 25 μL of 3 μg/mL antigen in 384-well Maxisorp plates overnight at 4° C. with agitation. The next day, the samples in the plates were blocked with 70 μL blocking buffer (PBS+1% BSA+0.1% Tween-20) for 2 hours at room temperature. Plates were then washed three times with 100 μL of wash buffer (PBS+0.1% Tween-20). Primary antibodies in Expi293 expression medium were diluted 1:3 in blocking buffer, 25 μL added per well, and the plates were incubated for an hour at room temperature with agitation. Plates were then washed three times and 25 μL of secondary antibody (goat anti-Human IgG, HRP conjugated; Jackson Immunoresearch) diluted 1:5000 in blocking buffer was added for 30 minutes at room temperature. The wells in the plates were washed six times with wash buffer and TMB substrate was added followed by 1 M H3PO4.

Inhibin A [4] = target: T1, Inhibin A; assay: ELISA, coated antigen, OD450; remark: listed apart in the source
Protocol: as §1

Activin B [5] = target: T2, Activin B; assay: ELISA, coated antigen, OD450; remark: listed apart in the source
Protocol: as §1

Latent Activin A [6] = target: T4, Latent Activin A; assay: ELISA, coated antigen, OD450
Protocol: as §1

Inhibin B = target: T5, Inhibin B; assay: the assays described above
Inhibin A [7] = target: T1, Inhibin A; assay: ELISA dose-response, coated antigen (row 'Inhibin')
Protocol: as §1

Mature Activin A [8] = target: T3, Mature Activin A; assay: ELISA dose-response, coated antigen
Protocol: as §1

Latent Activin A [9] = target: T4, Latent Activin A; assay: ELISA dose-response, coated antigen
Protocol: as §1

Activin B [10] = target: T2, Activin B; assay: ELISA, coated antigen, OD450; secondary screen, single OD 450 reading as fold over negative control; below the 1.40-fold cut-off
Protocol: as §1

Activin B [11] = target: T2, Activin B; assay: ELISA dose-response, coated antigen
Protocol: as §1

Activin B [12] = target: T2, Activin B; assay: ELISA dose-response, coated antigen; dose-response ELISA, 1:3 dilutions from 133 nM; weak binding within the tested range
Protocol: as §1

Activin B [13] = target: T2, Activin B; assay: ELISA, coated antigen, OD450; secondary screen, single OD 450 reading as fold over negative control; below the 1.40-fold cut-off, so not a binder
Protocol: as §1

Binder | binding result (Inhibin A [1]) | binding result (Activin B [2]) | fold-change of OD 450 over negative control (BSA) (Mature Activin A [3]) [fold] | fold-change of OD 450 over negative control (BSA) (Inhibin A [4]) [fold] | fold-change of OD 450 over negative control (BSA) (Activin B [5]) [fold] | fold-change of OD 450 over negative control (BSA) (Latent Activin A [6]) [fold] | binding result (Inhibin B) | EC50 (Inhibin A [7]) [nM] | EC50 (Mature Activin A [8]) [nM] | EC50 (Latent Activin A [9]) [nM] | fold-change of OD 450 over negative control (BSA) (Activin B [10]) [fold] | EC50 (Activin B [11]) [nM] | EC50 (Activin B [12]) [nM] | fold-change of OD 450 over negative control (BSA) (Activin B [13]) [fold]
B1 | no binding (tested: 1.40-fold over BSA) | no binding (tested: 1.40-fold over BSA) | 2.33 | 1.11 | 1.04 | 1.9 |  |  |  |  |  |  |  | 
B2 |  |  | 16.3 | 11.7 |  | 18.7 | no binding | 0.02 | 0.03 | 0.03 | 0.57 |  |  | 
B3 |  |  | 10.2 | 0.74 | 2.54 | 10.2 |  |  | 0.72 | 2.46 |  | 0.95 |  | 
B4 | no binding (tested: 1.40-fold over BSA) | no binding (tested: 1.40-fold over BSA) | 10.6 | 0.65 | 0.74 | 7.33 |  |  |  |  |  |  |  | 
B5 | no binding (tested: 1.40-fold over BSA) | no binding (tested: 1.40-fold over BSA) | 8.98 | 0.61 | 0.72 | 4.4 |  |  |  |  |  |  |  | 
B6 |  | no binding (tested: 1.40-fold over BSA) | 6.01 | 8.53 | 0.58 | 5.91 |  |  |  |  |  |  |  | 
B7 |  |  | 8.73 | 0.94 |  | 6.01 |  |  | 2.73 | 40.9 | 0.88 |  | 21.3 | 
B8 |  |  | 24.7 | 22.9 | 24.6 | 24.9 |  | 0.05 | 0.02 | 0.04 |  | 0.03 |  | 
B9 |  |  | 7.81 | 0.36 |  | 7 |  |  | 4.89 | 48.6 |  |  |  | 0.43
B10 |  |  | 21 | 15.9 |  | 21.6 |  | 2.08 | 0.07 | 0.04 | 0.71 |  | 11.2 | 
